Measured values published in doi:10.64898/2025.12.11.693820, “DNA binding and lesion recognition by the bacterial interstrand DNA crosslink glycosylase AlkX”.

Molecular target: AbaAlkX Y300F (Acinetobacter baumannii, UniProt A0A0D5YK62 1-385, Y300F;V301L)
Experiment: EMSA; 10 nM DNA; binding unaffected relative to WT
Details: protein: recombinant; tags: His6-SUMO tag cleaved (3C); label: Cy5 on strand 1; FAM on strand 2 (both printed at 5' end); blunt; covalently crosslinked strands

B1: 2F-NM8-ICL DNA (dsDNA)
DNA 1: TTTATTTTTATTTGACTTTTATTTTT
DNA 2: AAAAATAAAAGTCAAATAAAAATAAA
- binding result: binds
